Laboratory results as given in patent US20020051821A1, “Aliginate particle formulation” (priority 2000, published 2002).

Assay type: in vitro ADME
Details: human, topical or ocular, 3 mg
Procedure: For a composition performance test that more closely parallels eventual practical use, candidate particle compositions can be injected into dermatomed, full thickness human skin samples. Replicate skin samples after injection can be placed on modified Franz diffusion cells containing 32° C. water, physiologic saline or buffer. Additives such as surfactants may be used to prevent binding to diffusion cell components and to maintain sink conditions. Two kinds of measurements can be made to assess performance of the formulation in the skin.
To measure the formulation performance in vitro, the active (guest) component(s) of candidate compositions can be collected by complete or aliquot replacement of the Franz cell receiver solution at predetermined time intervals for chemical assay using HPLC or other suitable analytical technique. Concentration data can be used to generate a delivery profile and calculate a steady state permeation rate. This technique can be used to screen formulations for early indication of drug binding to skin, drug dissolution, efficiency of particle penetration of stratum corneum, etc., prior to in vivo studies.
Modified Franz cells (6.9 ml) were designed for investigation of transdermal flux (FIG. 1). […]

| Substance | Bioavailability [%] |
| --- | --- |
| lysozyme [Neat lysozyme] | 7.1 |
| Alginate | 63.8 |
